Publication PMC8113585

Molecular target: SARS-CoV-2 nucleocapsid (N) protein, full-length;mAb nCoV396 (human IgG1) (SARS-CoV-2;Homo sapiens) (UniProt P0DTC9)
Assay: EMSA

AAGUUCGUUU [TRS RNA]
Kd: 15.1 µM
